Data published in publication PMC5916938.
Values joined by “and” are separate entries in the source; they are usually repeats but may differ in a detail not shown here. Identical values can stand only once.

Molecular target: porcine brain tubulin (alpha/beta heterodimer), as paclitaxel-stabilised microtubule lattice (straight tubulin) or as curved tubulin protofilaments (porcine) (UniProt P02550)
Assay: cryo-EM 2D class averages; CTNM AMP-PNP: 15 uM KLP10A NM with 3 uM polymerized tubulin in BRB80, 5 mM AMPPNP, 5 mM MgCl2, 20 uM paclitaxel, 5 min at room temperature; ring-like curved tubulin complexes not wrapped around microtubules, aligned and classified in 2D
Settings: scale: KLP10A motor domain per tubulin heterodimer

Chain of UniProt P02550 (P02550 whole entry, chain 1 of 2): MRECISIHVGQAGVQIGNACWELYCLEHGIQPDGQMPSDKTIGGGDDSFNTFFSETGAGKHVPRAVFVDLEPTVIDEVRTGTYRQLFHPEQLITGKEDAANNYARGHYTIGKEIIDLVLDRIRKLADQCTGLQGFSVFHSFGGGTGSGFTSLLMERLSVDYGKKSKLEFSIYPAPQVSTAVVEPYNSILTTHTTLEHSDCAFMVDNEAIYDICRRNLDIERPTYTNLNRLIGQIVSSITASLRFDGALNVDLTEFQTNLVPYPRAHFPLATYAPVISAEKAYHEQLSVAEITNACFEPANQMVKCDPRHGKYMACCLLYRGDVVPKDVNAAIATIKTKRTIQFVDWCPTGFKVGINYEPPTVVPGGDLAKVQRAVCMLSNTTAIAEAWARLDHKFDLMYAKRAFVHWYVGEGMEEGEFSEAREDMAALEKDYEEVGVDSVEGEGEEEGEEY
Chain of UniProt P02550 (P02554 1-439, chain 2 of 2, further chain): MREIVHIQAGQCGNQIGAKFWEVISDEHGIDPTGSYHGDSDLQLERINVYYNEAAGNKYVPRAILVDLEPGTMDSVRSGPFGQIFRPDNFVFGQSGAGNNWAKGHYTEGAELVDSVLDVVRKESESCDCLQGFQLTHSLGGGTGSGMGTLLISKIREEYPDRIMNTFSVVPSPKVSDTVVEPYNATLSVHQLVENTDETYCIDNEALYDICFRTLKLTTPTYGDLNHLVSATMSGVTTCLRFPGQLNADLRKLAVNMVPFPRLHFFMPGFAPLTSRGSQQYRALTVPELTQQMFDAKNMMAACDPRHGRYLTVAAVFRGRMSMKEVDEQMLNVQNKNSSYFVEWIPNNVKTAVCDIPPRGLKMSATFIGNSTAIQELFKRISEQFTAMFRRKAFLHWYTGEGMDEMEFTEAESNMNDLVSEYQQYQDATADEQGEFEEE

stoichiometry N: 1 and 0.5
Substance: Drosophila melanogaster kinesin-13 KLP10A neck motor construct (NM), residues 198-615 (from UniProt Q960Z0 198-615) (domain or fragment)
